Assay results reported in publication PMC9164050, “N-Terminus-Mediated Solution Structure of Dimerization Domain of PRC1” (Current Issues in Molecular Biology, 2022).

Target: the molecule itself
Experiment: cross-linking; PEG5 cross-linker (0.1 M-1 M), protein at 20 nM and 50 nM, 50 mM sodium phosphate, 150 mM NaCl, pH 7.4, 25 °C, 30 min, read by SDS-PAGE

B1: PRC1 dimerization domain (PRC1-DD; aa 1-65 of Protein Regulator of Cytokinesis 1) (domain or fragment, human, UniProt O43663-1 1-65, looked up)
chain: MRRSEVLAEESIVCLQKALNHLREIWELIGIPEDQRLQRTEVVKKHIKELLDMMIAEEESLKERL
notes: Protein Regulator of Cytokinesis 1 (PRC1), human, isoform 1 (NP_003972; full length 620 residues), residues 1-65 (dimerization domain); Cloned between Nde I and Xho I of pET-21a with a C-terminal His-tag; no removal of the tag is described; For NMR the protein was 15N- or 15N/13C-labelled; isotopic heterodimers were made by mixing unlabelled and labelled protein in 8 M urea; also called …
stoichiometry N: 2
